Patent US20050282743A1, “Molecular interactions in cells” (Arbor Vita Corporation, priority 2001, published 2005)
Values belong to the sequence of their own block, whether it stands above or below them. Ends that are not written are not given here. * marks the point of attachment. Biotin = O=C1N[C@H]2[C@H](CS[C@H]2CCCCC(=O)*)N1

Key:
Type in all cases: binding
[1] = target: T1, PDZ protein (GST-PDZ fusion) (Homo sapiens, UniProt Q13796); assay: G' assay (10 uM PL peptide), results of TABLE 7 and TABLE 12; conditions: PDZ hAPXL, PDZ Domain 1
T1 construct: made in house; host or cells: E. coli (DH5alpha, BL21 or JM109)
T1 sequence (Q13796 whole entry, the tested form may be a part): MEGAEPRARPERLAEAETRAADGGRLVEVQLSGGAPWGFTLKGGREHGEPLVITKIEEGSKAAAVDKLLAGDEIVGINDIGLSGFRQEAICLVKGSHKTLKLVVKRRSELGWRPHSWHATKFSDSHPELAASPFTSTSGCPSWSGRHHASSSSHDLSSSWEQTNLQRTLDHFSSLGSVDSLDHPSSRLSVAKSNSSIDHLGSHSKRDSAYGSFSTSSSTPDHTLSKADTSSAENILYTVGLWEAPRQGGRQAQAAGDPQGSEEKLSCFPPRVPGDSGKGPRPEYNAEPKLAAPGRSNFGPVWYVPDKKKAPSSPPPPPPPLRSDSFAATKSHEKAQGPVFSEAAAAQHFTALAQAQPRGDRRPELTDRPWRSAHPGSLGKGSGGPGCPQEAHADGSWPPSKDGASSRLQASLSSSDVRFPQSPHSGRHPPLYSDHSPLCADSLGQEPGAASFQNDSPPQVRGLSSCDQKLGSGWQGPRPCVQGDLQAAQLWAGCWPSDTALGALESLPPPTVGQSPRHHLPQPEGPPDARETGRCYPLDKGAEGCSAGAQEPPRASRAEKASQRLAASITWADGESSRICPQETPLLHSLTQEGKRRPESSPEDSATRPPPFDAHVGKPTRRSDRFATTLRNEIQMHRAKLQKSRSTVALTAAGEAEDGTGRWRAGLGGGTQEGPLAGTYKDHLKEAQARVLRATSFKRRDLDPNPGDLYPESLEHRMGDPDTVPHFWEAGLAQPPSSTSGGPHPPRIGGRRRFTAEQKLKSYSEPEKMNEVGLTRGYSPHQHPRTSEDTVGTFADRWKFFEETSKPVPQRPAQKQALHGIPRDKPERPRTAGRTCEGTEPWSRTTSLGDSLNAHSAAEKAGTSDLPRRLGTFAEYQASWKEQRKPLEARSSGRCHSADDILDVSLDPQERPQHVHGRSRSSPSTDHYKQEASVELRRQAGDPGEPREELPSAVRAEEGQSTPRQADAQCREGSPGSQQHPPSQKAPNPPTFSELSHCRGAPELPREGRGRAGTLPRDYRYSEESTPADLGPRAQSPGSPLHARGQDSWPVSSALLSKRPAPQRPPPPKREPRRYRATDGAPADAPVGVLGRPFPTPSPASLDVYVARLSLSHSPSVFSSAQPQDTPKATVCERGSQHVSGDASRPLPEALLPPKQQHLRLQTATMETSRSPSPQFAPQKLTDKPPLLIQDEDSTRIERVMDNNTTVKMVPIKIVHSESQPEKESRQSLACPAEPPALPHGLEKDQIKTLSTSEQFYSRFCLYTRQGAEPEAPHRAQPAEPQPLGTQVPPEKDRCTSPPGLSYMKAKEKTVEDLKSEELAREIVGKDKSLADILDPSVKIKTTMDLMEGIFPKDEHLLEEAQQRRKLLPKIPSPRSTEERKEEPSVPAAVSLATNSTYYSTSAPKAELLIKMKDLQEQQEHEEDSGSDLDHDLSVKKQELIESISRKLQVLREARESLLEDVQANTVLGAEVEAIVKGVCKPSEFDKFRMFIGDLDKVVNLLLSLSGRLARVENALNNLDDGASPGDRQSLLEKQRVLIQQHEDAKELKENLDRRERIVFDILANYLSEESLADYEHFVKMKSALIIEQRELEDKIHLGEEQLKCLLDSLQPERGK
Outline: (§1)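 Same steps as the G-zero format, apart from a peptide concentration of 10 uM in place of 20 uM in step 2. Amino-terminally biotinylated PL peptides bind GST-PDZ fusions, and retained peptide is quantified by 450 nm absorbance.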

[2] = target: T2, PDZ protein (GST-PDZ fusion) (Homo sapiens, UniProt Q9NR12); assay: as above; conditions: PDZ ENIGMA, PDZ Domain 1
T2 construct: made in house; host or cells: E. coli (DH5alpha, BL21 or JM109)
T2 sequence (Q9NR12 whole entry, the tested form may be a part): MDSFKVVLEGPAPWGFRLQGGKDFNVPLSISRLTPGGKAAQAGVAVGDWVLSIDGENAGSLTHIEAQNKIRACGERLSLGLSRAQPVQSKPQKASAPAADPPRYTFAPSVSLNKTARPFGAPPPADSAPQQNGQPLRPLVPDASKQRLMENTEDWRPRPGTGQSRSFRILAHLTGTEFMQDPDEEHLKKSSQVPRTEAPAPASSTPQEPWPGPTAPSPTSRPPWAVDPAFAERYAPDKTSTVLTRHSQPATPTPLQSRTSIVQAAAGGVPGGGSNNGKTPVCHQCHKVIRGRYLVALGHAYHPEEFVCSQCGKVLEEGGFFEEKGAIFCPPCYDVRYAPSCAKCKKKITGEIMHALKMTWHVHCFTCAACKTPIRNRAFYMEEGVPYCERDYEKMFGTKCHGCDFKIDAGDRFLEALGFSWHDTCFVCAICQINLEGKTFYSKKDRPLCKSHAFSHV
Outline: as §1

[3] = tested on: PDZ protein (GST-PDZ fusion); assay: as above
Outline: as §1

[4] = target: T3, PDZ protein (GST-PDZ fusion) (Homo sapiens, UniProt Q6P0Q8); assay: as above
T3 construct: made in house; host or cells: E. coli (DH5alpha, BL21 or JM109)
T3 sequence (Q6P0Q8 whole entry, the tested form may be a part): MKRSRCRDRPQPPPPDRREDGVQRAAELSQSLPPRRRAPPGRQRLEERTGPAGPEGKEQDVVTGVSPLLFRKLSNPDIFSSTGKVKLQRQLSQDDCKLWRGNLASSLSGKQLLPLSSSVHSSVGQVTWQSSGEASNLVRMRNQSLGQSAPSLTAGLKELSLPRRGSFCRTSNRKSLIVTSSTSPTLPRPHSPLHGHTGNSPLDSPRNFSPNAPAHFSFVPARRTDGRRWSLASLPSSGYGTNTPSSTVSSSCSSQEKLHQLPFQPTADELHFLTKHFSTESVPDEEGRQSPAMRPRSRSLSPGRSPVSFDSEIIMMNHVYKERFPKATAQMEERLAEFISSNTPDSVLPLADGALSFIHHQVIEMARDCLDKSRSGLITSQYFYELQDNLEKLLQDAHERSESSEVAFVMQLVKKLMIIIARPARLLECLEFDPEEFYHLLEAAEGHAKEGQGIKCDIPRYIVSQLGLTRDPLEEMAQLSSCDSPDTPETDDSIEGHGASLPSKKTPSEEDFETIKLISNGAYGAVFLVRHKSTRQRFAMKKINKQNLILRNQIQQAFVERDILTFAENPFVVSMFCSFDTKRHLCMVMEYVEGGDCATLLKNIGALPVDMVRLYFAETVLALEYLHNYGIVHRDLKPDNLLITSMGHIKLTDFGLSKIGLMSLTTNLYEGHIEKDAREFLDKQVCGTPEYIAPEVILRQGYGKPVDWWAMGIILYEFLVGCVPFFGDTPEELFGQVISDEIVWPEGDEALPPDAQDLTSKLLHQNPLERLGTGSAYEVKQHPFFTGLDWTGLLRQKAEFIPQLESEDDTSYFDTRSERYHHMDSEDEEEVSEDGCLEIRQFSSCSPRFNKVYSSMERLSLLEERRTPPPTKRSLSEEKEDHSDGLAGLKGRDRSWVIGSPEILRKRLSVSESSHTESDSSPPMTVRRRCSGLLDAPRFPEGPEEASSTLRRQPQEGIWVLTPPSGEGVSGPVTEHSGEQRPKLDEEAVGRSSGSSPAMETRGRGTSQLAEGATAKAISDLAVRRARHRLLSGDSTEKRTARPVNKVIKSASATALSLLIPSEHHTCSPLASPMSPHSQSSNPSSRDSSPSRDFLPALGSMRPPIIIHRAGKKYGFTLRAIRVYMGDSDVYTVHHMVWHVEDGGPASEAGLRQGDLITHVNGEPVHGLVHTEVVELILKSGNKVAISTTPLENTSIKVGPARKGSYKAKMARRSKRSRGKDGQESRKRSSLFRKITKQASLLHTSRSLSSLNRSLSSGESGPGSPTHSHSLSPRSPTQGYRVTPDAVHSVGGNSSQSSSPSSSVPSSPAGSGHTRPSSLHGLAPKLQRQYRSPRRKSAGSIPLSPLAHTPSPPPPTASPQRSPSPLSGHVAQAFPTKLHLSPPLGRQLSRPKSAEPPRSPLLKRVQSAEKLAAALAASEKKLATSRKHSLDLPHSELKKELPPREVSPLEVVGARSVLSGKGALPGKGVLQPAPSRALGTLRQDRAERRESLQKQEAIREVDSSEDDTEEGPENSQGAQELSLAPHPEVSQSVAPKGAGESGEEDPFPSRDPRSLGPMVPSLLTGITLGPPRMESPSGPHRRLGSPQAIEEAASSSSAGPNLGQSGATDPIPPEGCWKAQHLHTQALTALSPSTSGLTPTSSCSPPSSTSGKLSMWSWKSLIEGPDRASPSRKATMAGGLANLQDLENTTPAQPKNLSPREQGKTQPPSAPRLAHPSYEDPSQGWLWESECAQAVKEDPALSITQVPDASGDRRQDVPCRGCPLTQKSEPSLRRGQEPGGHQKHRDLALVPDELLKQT
Outline: as §1

[5] = target: T4, PDZ protein (GST-PDZ fusion) (Homo sapiens, UniProt O75970); assay: as above; conditions: PDZ MUPP-1, PDZ Domain 10
T4 construct: made in house; host or cells: E. coli (DH5alpha, BL21 or JM109)
Outline: as §1

[6] = target: T5, PDZ protein (GST-PDZ fusion) (Homo sapiens, UniProt Q12923); assay: as above; conditions: PDZ PTPL-1, PDZ Domain 4
T5 construct: made in house; host or cells: E. coli (DH5alpha, BL21 or JM109)
Outline: as §1

[7] = target: T6, PDZ protein (GST-PDZ fusion) (Homo sapiens, UniProt Q02410); assay: as above
T6 construct: made in house; host or cells: E. coli (DH5alpha, BL21 or JM109)
T6 sequence (Q02410 1-837): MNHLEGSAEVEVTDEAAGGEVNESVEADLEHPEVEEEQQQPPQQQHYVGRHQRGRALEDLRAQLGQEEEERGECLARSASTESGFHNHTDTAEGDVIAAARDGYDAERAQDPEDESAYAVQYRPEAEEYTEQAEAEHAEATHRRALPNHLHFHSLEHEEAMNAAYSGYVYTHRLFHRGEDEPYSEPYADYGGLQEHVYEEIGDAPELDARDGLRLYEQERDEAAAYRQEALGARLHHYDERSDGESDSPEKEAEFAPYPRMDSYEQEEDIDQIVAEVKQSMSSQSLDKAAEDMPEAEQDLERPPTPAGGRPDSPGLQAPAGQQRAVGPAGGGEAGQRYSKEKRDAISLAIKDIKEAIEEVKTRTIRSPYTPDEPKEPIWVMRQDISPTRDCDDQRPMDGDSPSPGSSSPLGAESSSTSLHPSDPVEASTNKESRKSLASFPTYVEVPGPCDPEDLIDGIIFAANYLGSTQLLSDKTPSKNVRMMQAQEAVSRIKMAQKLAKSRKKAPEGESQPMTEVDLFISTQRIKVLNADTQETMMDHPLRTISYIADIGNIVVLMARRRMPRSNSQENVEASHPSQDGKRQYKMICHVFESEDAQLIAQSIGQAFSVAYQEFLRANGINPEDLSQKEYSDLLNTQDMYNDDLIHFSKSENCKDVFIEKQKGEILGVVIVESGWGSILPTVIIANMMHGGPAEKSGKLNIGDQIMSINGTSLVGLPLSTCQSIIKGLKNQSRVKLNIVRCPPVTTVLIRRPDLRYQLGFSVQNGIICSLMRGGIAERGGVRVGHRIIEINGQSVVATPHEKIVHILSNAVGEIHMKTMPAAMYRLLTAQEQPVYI
Outline: as §1

[8] = target: T7, PDZ protein (GST-PDZ fusion) (Homo sapiens, UniProt Q99767); assay: as above; conditions: PDZ X11-beta, PDZ Domain 2
T7 construct: made in house; host or cells: E. coli (DH5alpha, BL21 or JM109)
T7 sequence (Q99767 1-749): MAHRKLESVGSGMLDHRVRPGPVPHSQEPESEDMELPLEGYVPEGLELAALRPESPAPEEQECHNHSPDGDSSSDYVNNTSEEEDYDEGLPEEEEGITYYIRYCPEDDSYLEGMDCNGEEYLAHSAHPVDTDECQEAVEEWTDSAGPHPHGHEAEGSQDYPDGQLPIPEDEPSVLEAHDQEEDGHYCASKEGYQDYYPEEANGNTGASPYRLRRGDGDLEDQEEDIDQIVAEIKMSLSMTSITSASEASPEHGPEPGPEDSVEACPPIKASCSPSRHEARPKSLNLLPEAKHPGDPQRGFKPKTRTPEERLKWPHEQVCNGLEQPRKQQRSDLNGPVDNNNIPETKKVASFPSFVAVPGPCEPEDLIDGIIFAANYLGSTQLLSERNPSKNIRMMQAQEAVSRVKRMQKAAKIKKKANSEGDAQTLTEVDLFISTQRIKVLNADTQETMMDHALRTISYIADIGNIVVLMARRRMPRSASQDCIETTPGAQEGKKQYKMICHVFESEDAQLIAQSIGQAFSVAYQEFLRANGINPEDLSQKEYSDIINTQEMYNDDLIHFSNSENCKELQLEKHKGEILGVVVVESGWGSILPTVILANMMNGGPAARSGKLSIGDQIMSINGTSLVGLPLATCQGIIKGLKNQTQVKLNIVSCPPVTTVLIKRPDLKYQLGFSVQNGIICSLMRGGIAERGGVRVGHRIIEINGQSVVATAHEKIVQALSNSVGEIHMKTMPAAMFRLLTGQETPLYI
Outline: as §1

TIP-1 (GST-TIP-1) = target: T8, TIP-1 (GST-TIP-1) (Homo sapiens, UniProt O14907, I73S); assay: G assay with unlabeled 8 amino acid competitor peptide (Example 4, FIGS. 2B, 2C)
T8 construct: made in house; host or cells: E. coli DH5alpha
T8 sequence (O14907 3-123 I73S): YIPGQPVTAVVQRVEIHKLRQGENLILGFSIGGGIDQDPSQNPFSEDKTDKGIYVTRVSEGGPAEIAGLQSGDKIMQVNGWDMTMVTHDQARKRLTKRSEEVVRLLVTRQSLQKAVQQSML
Method: FIGS. 2A, 2B and 2C show binding and competition assays with the PDZ ligands of CD95 (Fas) and Tax for the PDZ domain of TIP-1.
Upon infection, the higher affinity of Tax could preferentially bind TIP-1 protein available in the cell, removing the TIP-1 bound to CD95 (Fas) and thereby rendering the cell less able to undergo apoptosis. In order to test this, competition experiments between Tax and CD95 for TIP-1 binding were performed using the ‘G Assay’, but adding additional unlabeled competitor peptide at step 9 of the ‘G Assay’ presented in EXAMPLE 3 section D.
FIGS. 2B and 2C show the results of these experiments. The graphs show the amount of binding of the biotinylated 20 amino acid peptide in the presence of increasing concentrations of unlabeled 8 amino acid competitor.

DLG-1 = target: T9, DLG-1 (Homo sapiens, UniProt Q12959); assay: G assay competition of short unlabeled peptides with biotinylated 20-mers (Example 6, TABLE 6); conditions: competitor 50 uM; for % binding: 100 = no competitor
T9 construct: protein spans from amino terminal end of first PDZ domain to carboxy-terminal end of third PDZ domain in frame with GST in vector; made in house; host or cells: E. coli DH5alpha
T9 sequence (Q12959 224-546 limits assumed): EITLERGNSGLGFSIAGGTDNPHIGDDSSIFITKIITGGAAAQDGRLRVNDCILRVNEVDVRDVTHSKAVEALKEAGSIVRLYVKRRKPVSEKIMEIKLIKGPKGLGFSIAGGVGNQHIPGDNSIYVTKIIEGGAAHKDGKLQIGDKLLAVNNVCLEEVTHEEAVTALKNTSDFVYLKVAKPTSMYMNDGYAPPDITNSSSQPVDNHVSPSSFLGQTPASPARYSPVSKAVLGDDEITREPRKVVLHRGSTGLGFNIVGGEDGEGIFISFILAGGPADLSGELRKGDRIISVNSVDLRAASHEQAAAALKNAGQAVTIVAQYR
From the text: (§2) The potential for unlabeled 8-mers and 3-mers to compete for binding with biotinylated 20-mers to PDZ domains was examined. Interactions between a PDZ domain and two or more biotinylated peptides mimicking PDZ ligands identified through the ‘G Assay’ were used as model interactions. Short, 3 or 8 amino acid, unlabeled peptides were synthesized by standard techniques and used at variable concentrations with a set concentration of biotinylated 20-mer. Ability of both the 3-mer and 8-mer to inhibit longer peptide binding was observed, making PDZ:PL interactions an attractive target for design of small molecule or peptide therapeutics.
(§3) Peptides representing the C-terminal 3, 8 or 20 amino acids of a PDZ ligand were synthesized by standard FMOC chemistry and biotinylated if not used as an unlabeled competitor. Peptides three amino acids in length were acetylated to more properly mimic the peptide bond without introducing an amino-terminal charged group. Peptides were purified by reverse phase high performance liquid chromatography (HPLC) using a Vydac 218TP C18 Reversed Phase column having the dimensions of 10*25 mm, 5 um. Approximately 40 mg of peptide was dissolved in 2.0 ml of and aqueous solution of 49.9% acetonitrile and 0.1% Tri-Fluoro acetic acid (TFA). This solution was then injected into the HPLC machine through a […] syringe filter (Millipore). Buffers used to get a good separation are (A) distilled water with 0.1% TFA and (B) 0.1% TFA with Acetonitrile.
(§4) The G Assay was performed as described in EXAMPLE 3 with the exception that when a short competitor was used, 30 ul of competitor peptide (at twice the final concentration) was mixed with 30 ul biotinylated 20-mer (at twice the final concentration) and then added to the well.
(§5) PSD-95 and DLG-1 were incubated in the wells at 5 ug/ml as described in the G Assay protocol. Biotinylated 20-mer peptides used were 20 uM CLASP-2, 20 uM CD46, 10 uM CD95, and 10 uM KV1.3 (find sequences of peptides in TABLE 8). Competitors (unlabeled, short peptides) tested against each of the biotinylated peptides were 50 uM 8-mer of CD95, 100 uM 8-mer of CD46, 50 uM 8-mer of CLASP-2, and 1 mM and 500 uM acetylated 3-mer of CLASP-2. To deduce sequences, refer to TABLE 8. All absorbances were read at 450 nm after stopping TMB detection reaction at 30 min. Results were normalized in each group by dividing its A450 by the A450 of the PDZ/peptide binding in the absence of competitor and converting to percentage by multiplying by 100.

PSD-95 = target: T10, PSD-95 (Homo sapiens, UniProt P78352); assay: as above; conditions: competitor 50 uM, 100 = no competitor
T10 construct: protein spans from amino terminal end of first PDZ domain to carboxy-terminal end of third PDZ domain in frame with GST in vector; made in house; host or cells: E. coli DH5alpha
T10 sequence (P78352 58-398 limits assumed): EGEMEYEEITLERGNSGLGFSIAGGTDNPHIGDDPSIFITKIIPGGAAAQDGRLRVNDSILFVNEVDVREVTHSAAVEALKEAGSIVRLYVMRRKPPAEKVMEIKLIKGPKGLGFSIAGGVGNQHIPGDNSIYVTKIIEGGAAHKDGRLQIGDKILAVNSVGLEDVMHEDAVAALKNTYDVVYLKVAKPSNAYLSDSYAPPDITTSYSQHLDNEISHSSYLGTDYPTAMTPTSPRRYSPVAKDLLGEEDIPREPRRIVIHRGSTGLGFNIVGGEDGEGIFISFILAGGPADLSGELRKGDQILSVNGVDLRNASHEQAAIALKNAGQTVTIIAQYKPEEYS
From the text: as §2, §3, §4, §5

[9] = target: T11, PDZ protein (GST-PDZ fusion) (Homo sapiens, UniProt P55196); assay: G' assay (10 uM PL peptide), results of TABLE 7 and TABLE 12; conditions: PDZ AF6, PDZ Domain 1
T11 construct: made in house; host or cells: E. coli (DH5alpha, BL21 or JM109)
Outline: as §1

[10] = target: T12, PDZ protein (GST-PDZ fusion) (Homo sapiens, UniProt P50479); assay: as above; conditions: PDZ LIM RIL, PDZ Domain 1
T12 construct: made in house; host or cells: E. coli (DH5alpha, BL21 or JM109)
T12 sequence (P50479 1-330): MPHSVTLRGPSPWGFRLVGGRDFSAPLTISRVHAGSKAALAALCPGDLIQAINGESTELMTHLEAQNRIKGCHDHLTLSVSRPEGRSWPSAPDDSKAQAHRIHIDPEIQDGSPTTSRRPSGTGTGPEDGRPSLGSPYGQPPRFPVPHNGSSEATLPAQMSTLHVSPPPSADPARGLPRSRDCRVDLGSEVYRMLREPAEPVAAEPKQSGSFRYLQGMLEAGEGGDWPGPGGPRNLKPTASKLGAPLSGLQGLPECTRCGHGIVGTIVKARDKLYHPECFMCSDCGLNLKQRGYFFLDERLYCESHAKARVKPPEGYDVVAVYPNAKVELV
Outline: as §1

[11] = biotinylated 20-mer CLASP-2 20 uM
[12] = biotinylated 20-mer KV1.3 10 uM

Classification [1]: 1 (A450 nm 0-1) | Classification [2]: 1 (A450 nm 0-1)
Sequence: EVIGYIEKPGVETLEDSVF (Biotin-EVIGYIEKPGVETLEDSVF) [CDW125 (modified)]

Classification [1]: 1 (A450 nm 0-1) | Classification ([4]; PDZ KIAA807): 1 (A450 nm 0-1) | Classification ([4]; PDZ KIAA0807(S), PDZ Domain 1): 1 (A450 nm 0-1) | Classification [5]: 1 (A450 nm 0-1) | Classification [6]: 1 (A450 nm 0-1) | Classification ([7]; PDZ Mint 1, PDZ Domain 1, 2): 1 (A450 nm 0-1) | Classification ([7]; PDZ Mint 1, PDZ Domain 2): 1 (A450 nm 0-1) | Classification [8]: 1 (A450 nm 0-1)
Sequence: NGGFAVDKSDTISFTQTSQF [glutamate transporter 3]
Classification ([3]; PDZ BAI-1, PDZ Domain 4): 1 (A450 nm 0-1)

concentration of unlabeled competitor it takes to compete for binding of Tax to TIP-1 (FIG. 2C) (TIP-1 (GST-TIP-1); unlabeled 8 amino acid CD95 competitor, 1 μM labeled Tax 20-mer): 100 to 500 µM | excess needed to interfere with the binding of Tax to TIP-1 (TIP-1 (GST-TIP-1); unlabeled CD95 8-mer versus labeled Tax): ~500 fold | % binding (DLG-1; biotinylated 20-mer CD46 20 uM): 110% | % binding (DLG-1; biotinylated 20-mer CD95 10 uM): 70% | % binding (DLG-1; [11]): 73% | % binding (DLG-1; [12]): 84% | reduction of binding of CLASP-2 and CD95 labeled ligand (DLG-1; 2.5 to 5-fold excess): approximately 30% | % binding (PSD-95; biotinylated 20-mer CD46 20 uM): 100% | % binding (PSD-95; biotinylated 20-mer CD95 10 uM): 75% | % binding (PSD-95; [11]): 92% | % binding (PSD-95; [12]): 87%
Sequence: RNEIQSLV [CD95 8-mer, unlabeled peptide of the C-terminal 8 amino acids of CD95]

Classification [1]: 1 (A450 nm 0-1) | Classification [9]: 2 (A450 nm 1-2) | Classification [2]: 2 (A450 nm 1-2) | Classification [10]: 1 (A450 nm 0-1)
Sequence: YSATYSELEDPGEMSPPIDL (Biotin-YSATYSELEDPGEMSPPIDL) [FceRlb]
Classification ([3]; PDZ LIM Protein, PDZ Domain 1): 2 (A450 nm 1-2)
